Measured values from CN1930187A (ABGENIX INC, dated 2007).

Assays:
[1] = biological target: EGFRvIII (full length, expressed by cells: NR6 M, H1477, 300.19/EGFRvIII) (human, UniProt P00533 298-1210); assay: cell-based or functional assay
[2] = biological target: T1, EGFRvIII PEP3 peptide conjugated to OVA (EGFRvIII肽-OVA) (human, Cys 14 coupled to maleimide-activated ovalbumin (peptide:OVA 14.5:1)); assay: binding to pep3 (XenoMax screen)
T1 construct: also called EGFRvIII peptide-OVA; VIII-pep-OVA
T1 peptide: LEEKKGNYVVTDHC

B1: AB-EGFRvIII-XG1-095 (antibody, human IgG1, V domains shown)
VH: QVQLQESGPFLVKPSQTLSLTCTVSGGSISSGGYYWSWIRQHPGKGLEWIGFIYYRGNTYYNPSLKSRVTISVDTSKNQFSLKLSSVTAADTAVYYCARDGYCSRTGCYGGWFDPWGQGTLVTVSP
VL: DIVMTQTPLSSPVTLGQPASISCRSSQSLIHTDGNIYLSWLQQRPGQPPRLLIYKISNRFSGVPDRFSGSGAGTDFTLKISRVEAEDVGVYYCMQGTQFPITFGQGTRLEIK
For B1, the “%内在化” value [1] was 72.4%.

B2: SC-EGFRvIII-XG2-150 (antibody, human IgG1, V domains shown)
VH: QVQLQQSGPGLVKPSQTLSLTCAISGDSVSSYSSAWNWIRQSPSRGLEWLGRAYHRSRWYYEYAVSVKSRINITPDTSKNQFSLQLNSVTPEDTAVYYCARGSRFDYWGQGTLVTVSS
VL: DIVMTQTPLSSPVTLGQPASISCRSSQSLVHRDGNTYLSWLQQRPGQPPRLLIYKISNRFSGVPDRFSGSGAGTDFTLKISRVEAEDVGIYFCMHTTQFPWTFGQGTRVEIK
B2 was tested, and the “%内在化” value [1] was 20%.

B3: SC-EGFRvIII-XG1-139 (antibody, human IgG1, V domains shown)
VH: EVQVLESGGGLVQPGGSLRLSCAASGFTFSSYAMSWVRQAPGKGLEWVSAISGSGGSTNYADSVKGRFTISRDNSKNTLYLQMNSLRAEDTAVYYCAGSSGWSEYWGQGTLVTVSS
VL: DIQMTQSPSSLSASVGDRVTITCRASQGIRNNLAWYQQKPGKAPKRLIYAASNLQSGVPSRFTGSGSGTEFTLIVSSLQPEDFATYYCLQHHSYPLTSGGGTKVEIK
For B3, the “%内在化” value [1] was 80.8%.

B4: SC-EGFRvIII-XG1-250 (antibody, human IgG1, V domains shown)
VH: EGQLLESGGGWVQPGESLRLSCAASGFTFSSYAMSWVRQAPGKGLEWVSAISGSGGSTNYADSVKGRFTISRDNSKNTLYLQVNSLRVEDTAVYYCAGSSGWSEYWGQGTLVTVSS
VL: DIQMTQSPSSLSASVGDSVTITCRTSQGIRKNLGWYQQKPGKAPKRLIYAASSLQSGVPSRFSGSGSGTEFTLTISRLQPEDFATYYCLQHHSYPLTFGGGTRVEIR
notes: also called sc250; SC250
For B4, the binding result [2] was “binds” and the “%内在化” value [1] was 16.7%.

B5: SC-EGFRvIII-XG1-131 (antibody, V domains shown)
VH: QVQLVESGGGVVQSGRSLRLSCAASGFTFRNYGMHWVRQAPGKGLEWVAVIWYDGSDKYYADSVRGRFTISRDNSKNTLYLQMNSLRAEDTAVYYCARDGYDILTGNPRDFDYWGQGTLVTVSS
VL: DTVMTQTPLSSHVTLGQPASISCRSSQSLVHSDGNTYLSWLQQRPGQPPRLLIYRISRRFSGVPDRFSGSGAGTDFTLEISRVEAEDVGVYYCMQSTHVPWTFGQGTKVEIK
notes: Recombinant human antibody (XenoMax)
B5: binds [2].

B6: AB-EGFRvIII-XG1K-13.1.2 (antibody, V domains shown)
VH: QVQLVESGGGVVQPGRSLRLSCAASGFTFSSYGMHWVRQAPGKGLEWVAVIWYDGSNKYYVDSVKGRFTISRDNSKNTLYLQMNSLRAEDTAVYYCARDGWQQLAPFDYWGQGTLVTVSS
VL: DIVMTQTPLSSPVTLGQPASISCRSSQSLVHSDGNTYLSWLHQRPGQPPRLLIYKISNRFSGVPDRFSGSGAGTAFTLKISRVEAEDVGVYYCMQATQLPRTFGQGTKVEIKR
notes: Human IgG1 kappa from a XenoMouse G1 hybridoma; Residue numbers of the mutants count on this running numbering
In the case of B6, the “%内在化” value [1] is reported as 82.5%.

B7: SC-EGFRvIII-XG2-170 (antibody, human IgG1, V domains shown)
VH: QVQLQQSGPGLVKPSQTLSLTCAISGDSVSSNNAAWNWIRQSPARGLEWLGRTYYRSKWYNDYVVSVKSRITINPDTSKNQFSLQLNSVTPEDTAVYYCVRATAFDYWGQGTLVTVSS
VL: AIVLTQTPLSSPVTLGQPASISCRSSQSLVHRDGNTYLSWLQQRPGQPPRLLIYKISNRFSGVPDRFSGSGAGTDFTLKISRVEPDDVGVYYCMHTTQLPWTFGQGTKVEIK
With B7 the “%内在化” value [1] was 20.1%.

B8: SC-EGFRvIII-XG1-211 (antibody, human IgG1, V domains shown)
VH: QVQLVESGGGVVQPGRSLRLSCVASGFTLSSYGMHWVRQAPGKGLEWVAVTSYDGSKKDYADSAKGRFTISRDNSKNTLYLQMNSLRAEDTAVYYCVSEGYCSSSSCYKYYYYGMDVWGQGTTVTVSS
VL: DIVMTQSPLSLPVTPGEPASISCRSSQSLLYRNGNNYLDWYLQRPGQSPQLLIYLGSNRASGVPDRFSGSGSGTDFTLKISRVEAEDVGVYYCMQALQTPRTFGQGTKVEIK
With B8 the “%内在化” value [1] was 21.6%.
